Tests used:
Assay type in all cases: cell-based, human
[1] = substrate: OC[C@H]1OC[C@H](O)[C@@H](O)[C@@H]1O; experiment: 1,5-AG uptake in HEK293T cells overexpressing SGLT5 variant Asn96Ile; conditions: other: variant Asn96Ile (rs148178887); pH 7.4; 37.0 °C
Protocol: (§1) For a typical transporter experiment we proceeded as follows. […] To minimize cell loss during the various washing steps in the radioactive uptake experiments, the wells where the cells were seeded were previously coated with poly- D-lysine, which improved their adhesion to the plastic surface of the wells. For this, each well of the 24-well plates was treated with 200 µl of a 0.01% poly-L-lysine solution for 10 min, washed 3 times with 1 ml of sterilized water and left to dry for 2 h. Only then could the 24-well plates be seeded with the appropriate cell lines and cultured overnight at 37 °C in 5% CO2.
(§2) On day two, the radioactive uptake assay could be performed. The cell culture media was removed by aspiration and cells were incubated for 20 min at 37 °C and 5% CO2 with a basal medium (10 mM HEPES, pH 7.4, 1 mM CaCl2, 1 mM MgCl2, 2 mM KCl) containing 140 mM choline chloride to deplete intracellular Na^2+ ions. […]
(§3) Once the uptake medium was added to the cells, the plates were incubated at 37 °C in 5% CO2 during the required time. […] In each experiment, the transport activities were calculated after subtracting a “blank” value, corresponding to the radioactivity in the appropriate control cells (HEK293T cells that were stably or transiently transfected with one of the parent plasmids pEF6/MycHisA, pEF6HisB, pUB82 or pUB83 with no inserted cDNA) that were analyzed in parallel. […]

[2] = substrate: OC[C@H]1OC[C@H](O)[C@@H](O)[C@@H]1O; experiment: 1,5-AG uptake in HEK293T cells overexpressing SGLT5 variant Arg401His; conditions: other: variant Arg401His (rs754390288); pH 7.4; 37.0 °C
Protocol: as §1, §2, §3

[3] = substrate: OC[C@H]1OC[C@H](O)[C@@H](O)[C@@H]1O; experiment: 1,5-AG uptake in HEK293T cells overexpressing SGLT5 variant Ala522Val; conditions: other: variant Ala522Val (rs12604020); pH 7.4; 37.0 °C
Protocol: as §1, §2, §3

B1: hSGLT5 Asn96Ile (Homo sapiens; N96I) (protein)
chain: MAANSTSDLHTPGTQLSVADIIVITVYFALNVAVGIWSSCRASRNTVNGYFLAGRDMTWWPIGASLFASSEGSGLFIGLAGSGAAGGLAVAGFEWIATYVLLALAWVFVPIYISSEIVTLPEYIQKRYGGQRIRMYLSVLSLLLSVFTKISLDLYAGALFVHICLGWNFYLSTILTLGITALYTIAGGLAAVIYTDALQTLIMVVGAVILTIKAFDQIGGYGQLEAAYAQAIPSRTIANTTCHLPRTDAMHMFRDPHTGDLPWTGMTFGLTIMATWYWCTDQVIVQRSLSARDLNHAKAGSILASYLKMLPMGLIIMPGMISRALFPDDVGCVVPSECLRACGAEVGCSNIAYPKLVMELMPIGLRGLMIAVMLAALMSSLTSIFNSSSTLFTMDIWRRLRPRSGERELLLVGRLVIVALIGVSVAWIPVLQDSNSGQLFIYMQSVTSSLAPPVTAVFVLGVFWRRANEQGAFWGLIAGLVVGATRLVLEFLNPAPPCGEPDTRPAVLGSIHYLHFAVALFALSGAVVVAGSLLTPPPQSVQIENLTWWTLAQDVPLGTKAGDGQTPQKHAFWARVCGFNAILLMCVNIFFYAYFA
notes: pUB83-hSGLT5-iso2 as well as the various SGLT5 mutants obtained were used to transduce HEK293T cells; expressed in transfected cells; host or cells: HEK293T, lentiviral transduction (pUB83)
Question: B1 was tested. Which Km [1] did it give?
Answer: 1565 ± 302 µM

B2: hSGLT5 Arg401His (Homo sapiens; R401H) (protein)
chain: MAANSTSDLHTPGTQLSVADIIVITVYFALNVAVGIWSSCRASRNTVNGYFLAGRDMTWWPIGASLFASSEGSGLFIGLAGSGAAGGLAVAGFEWNATYVLLALAWVFVPIYISSEIVTLPEYIQKRYGGQRIRMYLSVLSLLLSVFTKISLDLYAGALFVHICLGWNFYLSTILTLGITALYTIAGGLAAVIYTDALQTLIMVVGAVILTIKAFDQIGGYGQLEAAYAQAIPSRTIANTTCHLPRTDAMHMFRDPHTGDLPWTGMTFGLTIMATWYWCTDQVIVQRSLSARDLNHAKAGSILASYLKMLPMGLIIMPGMISRALFPDDVGCVVPSECLRACGAEVGCSNIAYPKLVMELMPIGLRGLMIAVMLAALMSSLTSIFNSSSTLFTMDIWRRLHPRSGERELLLVGRLVIVALIGVSVAWIPVLQDSNSGQLFIYMQSVTSSLAPPVTAVFVLGVFWRRANEQGAFWGLIAGLVVGATRLVLEFLNPAPPCGEPDTRPAVLGSIHYLHFAVALFALSGAVVVAGSLLTPPPQSVQIENLTWWTLAQDVPLGTKAGDGQTPQKHAFWARVCGFNAILLMCVNIFFYAYFA
notes: as for B1
Question: For B2, which Km [2] is on record?
Answer: 331 ± 13 µM

B3: hSGLT5 Ala522Val (Homo sapiens; A522V) (protein)
chain: MAANSTSDLHTPGTQLSVADIIVITVYFALNVAVGIWSSCRASRNTVNGYFLAGRDMTWWPIGASLFASSEGSGLFIGLAGSGAAGGLAVAGFEWNATYVLLALAWVFVPIYISSEIVTLPEYIQKRYGGQRIRMYLSVLSLLLSVFTKISLDLYAGALFVHICLGWNFYLSTILTLGITALYTIAGGLAAVIYTDALQTLIMVVGAVILTIKAFDQIGGYGQLEAAYAQAIPSRTIANTTCHLPRTDAMHMFRDPHTGDLPWTGMTFGLTIMATWYWCTDQVIVQRSLSARDLNHAKAGSILASYLKMLPMGLIIMPGMISRALFPDDVGCVVPSECLRACGAEVGCSNIAYPKLVMELMPIGLRGLMIAVMLAALMSSLTSIFNSSSTLFTMDIWRRLRPRSGERELLLVGRLVIVALIGVSVAWIPVLQDSNSGQLFIYMQSVTSSLAPPVTAVFVLGVFWRRANEQGAFWGLIAGLVVGATRLVLEFLNPAPPCGEPDTRPAVLGSIHYLHFAVALFVLSGAVVVAGSLLTPPPQSVQIENLTWWTLAQDVPLGTKAGDGQTPQKHAFWARVCGFNAILLMCVNIFFYAYFA
notes: as for B1
Question: With B3 as the protein, how does the Km [3] read?
Answer: 210 ± 12 µM

— article PMC10439028, “SGLT5 is the renal transporter for 1,5-anhydroglucitol, a major player in two rare forms of neutropenia” (Cellular and Molecular Life Sciences: CMLS, 2023)
